B1: 6His-tagged HAdV5 IVa2, purified from E. coli (natural protein)
chain: METRGRRPAALQHQQDQPQAHPGQRAARSAPLHRDPDYADEDPAPVERHDPGPSGRAPTTAVQRKPPQPAKRGDMLDRDAVEQVTELWDRLELLGQTLKSMPTADGLKPLKNFASLQELLSLGGERLLADLVRENMRVRDMLNEVAPLLRDDGSCSSLNYQLHPVIGVIYGPTGCGKSQLLRNLLSSQLISPTPETVFFIAPQVDMIPPSELKAWEMQICEGNYAPGPDGTIIPQSGTLRPRFVKMAYDDLILEHNYDVSDPRNIFAQAAARGPIAIIMDECMENLGGHKGVSKFFHAFPSKLHDKFPKCTGYTVLVVLHNMNPRRDMAGNIANLKIQSKMHLISPRMHPSQLNRFVNTYTKGLPLAISLLLKDIFRHHAQRSCYDWIIYNTTPQHEALQWCYLHPRDGLMPMYLNIQSHLYHVLEKIHRTLNDRDRWSRAYRARKTPK
notes: IVa2 of human adenovirus serotype 5; synthetic gene cassette, codon-optimized for bacteria, in pET28a (pET28-IVa2); the results speak of the full-length IVa2 band; A faster migrating band, perhaps a degradation product of IVa2, was also in the preparation; also called purified IVa2; source: E. coli BL21 (DE3) pLysS, purified (HiTrap NiNTA, HiPrep 16/10 SP-XL cation exchange)
B2: 6His-tagged HAdV5 L4 33K, purified from E. coli (natural protein)
chain: MAPKKKLQLPPPPTDEEEYWDSQAEEVLDEEEEDMMEDWESLDEEASEVEEVSDETPSPSVAFPSPAPQKSATGSSMATTSAPQAPPALPVRRPNRRWDTTGTRAAHTAPAAAAAAATAAATQKQRRPDSKTLTKPKKSTAAAAAGGGALRLAPNEPVSTRELRNRIFPTLYAIFQQSRGQEQELKIKNRSLRSLTRSCLYHKSEDQLRRTLEDAEALFSKYCALTLKD

Experiments:
[1] = biological target: the molecule itself; test: transmission electron microscopy (negative stain); purified protein on glow-discharged carbon-coated formvar grids, rinsed with 20 mM Tris pH 7.5, 2% uranyl acetate
[2] = biological target: B1; test: cell-based or functional assay

Binder	binding result [1]	ATPase activity of purified IVa2 (inorganic phosphate after 30 min at 37°C) with 33K and HAdV5 Tp-DNA; no significant increase with only IVa2 + 33K, 33K + Tp-DNA or IVa2 + Tp-DNA [2]
B1	binds	–
B2	–	3 fold

— paper PMC4404914, “Adenoviral L4 33K forms ring-like oligomers and stimulates ATPase activity of IVa2: implications in viral genome packaging” (Frontiers in Microbiology, 2015)
